test: yeast display, Sf9 membrane polyspecificity reagent, FACS + sequencing; frameworks hold sequencing errors
Summary of the method: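 Nanobodies from a synthetic yeast display library (Saccharomyces cerevisiae BJ5465), induced 36–48 hours with galactose, were stained 1 hour at 4 °C with 10% biotinylated, detergent-solubilized Sf9 membrane reagent, enriched on streptavidin microbeads, then FACS-sorted. Anti-HA (expression) and streptavidin (reagent binding) fluorescence set low and high (top ~1%) gates. Polyreactivity labels come from the gate of origin. Genes were colony-PCR amplified, MiSeq 2 × 250 sequenced and filtered by CDR length.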

| Sequence | polyreactivity (PSR sort gate) |
| --- | --- |
| QVQLVESGGGLVQAGGSLRLSCAASGSIFSYYAMGWYRQAPGKERELVAAIDRSGVSTYYADSVKGRFTISRDNAKNTVYLQMNSLKPEDTAVYYCNTDHRNICFRFKYDYWGQGTQVTVSS | high polyreactivity |
| QVQLVESGGGLVQAGGSLRLSCAASGSIFGYNAMGWYRQAPGKERELVAAISNDGDNTYYADSVKGRFTISRDNAKNTVYLQMNSLKPEDTAVYYCATEYPLTYAYYYYDGGDYWGQGTQVTVSS | low polyreactivity |
| QVQLVESGGGLVQAGGSLRLSCAASGFTFYSYAMGWYRPAPGKERELVAAISSGGSTKYADSVKGRFTISRDNAKNTVYLQMNSVKPEDTEVYYCAARYYRDYRWYTYAYDYWGQGTQVTVSS | high polyreactivity |
| QVQLVESGGGLVQAGGSLRLSCAASGSTCRGYAMGWYRQAPGKEREFVAAISRRGGTTYYADSVKGRFTISRDNAKNTVYLQMNSLKQEDTAVYYCNKVYYQHYLAFDYWGQGTQVTVSS | high polyreactivity |
| QVQQQESGGGLVQASGSLRLSCAASGNIFPDYVMGWYRQGPGQEREFVANITGGSTTNYADSVKGRFSISRDNAKNTVYLQMNCLKQEDTAVYYCAVNFGTVVLYLYWGQGTQVTVSS | high polyreactivity |
| QVQLVESGGGLVQAGGSLRLSCAASGSTFVYYAMGWYRPAPGKERELVAAISKRGGSTYYADSVKGRFTISRDNAKNTVYLQMNSLKPEDTAVYHCAADQARGRYTLDYWGQGTQVTVSS | high polyreactivity |
| QVQLVESGGGLVQAGGSLRLSCAASGRTFYDNTMGWYRQAPGKERELVAAITRNGGSTYYADSVKGRFTISRDNAKNTVYLQMNTLKPEDTAVYYCNAELGILSGVAEGPTFREYDYWGQGTQVNVSS | low polyreactivity |
| QVQLVESGRGLVEAGGSLRLICAASGFIIRYYAMGWYRQAPWKERELVAAISTSGGRTYYADSVKGRFTISRDNAKNTVYLQMNSLKPEDTAVYYCNAYTHNRYYWGQGTQVTVSS | high polyreactivity |
| QDQLVESGGGLVQAGGSLRLSCAASGITFAYYAMGWYRQAPGQERDFVAAINGGGSTNYADSVKGRFTISRDNAKNTVYLQMKSLKAEDTAVYYCNARRAYRAWDYPYDYWGQGTQVTVSS | high polyreactivity |
| QVQLLESGRGLVQAGGSLRLSCAASGRTFVGYAMVWYRKAHGKERELVAGITASGGTTYYADSVKGRFTISRDNAKNTVYLQMNSLKPEDTAVYYCATTTTRYRYKKNYYWGQGIQVTVSS | high polyreactivity |
| QVQLVESGGGLVQAGGSLRLSCAASGSIFAEYAMGWYRQAPGKERELVAAITTSGSTNYADSVKGRFTISRDNAKNTVYLQMNSLKPEDTAVYYCNALFQQRYLDSSGEYWGQGTQVTVSS | low polyreactivity |
| QVQLVESGGGLVQAGVSLRLSCAASGRTFGYNAMGWYRQAPGKERVVVAAITIGGSTNYADSVKGRFTISRDNAKNTVYLQMNSLKPEDTAVYYCAAYDTLLYWVEFYYWGQGTQVTVSS | low polyreactivity |
| QVQLVESGGGLVQAGGSLRLSCAASRSTLLSNAMGWYTQAPGKERELVAAINYSGGRTYYADSVKGRFTISRDNAKNTVYLQINSLKPVDTAVYYCNALSSGHGSSSRYDYWGQGTQVTVSS | low polyreactivity |
| QVQLVESGGGLVQAGGSLRLSCAASGFIFIRYAMGWYRQAPGKERELVAAISPSGGSTYYADSVKGRFTISRDNAKNTVYLQMNSLKPEDTAVYYCAREWRTYYYFWDHYYIYDYWGQGTQVTVSS | high polyreactivity |
| QVQLVESGGGLVQAGGSLRLSCAASGSISAPNAMGWYRQAPGKERALVATINSGGRTNYADSVKGRFTISRDNAKNTVYFQMNSLKPEDTAVYYCNTVVRGAYTYGDVSKYDYWGHGTQVTVSS | low polyreactivity |
| QVQLVESGGGLVQAGGSLRLSCAASGSTFEIYVMGWYRQAPGKERELVAAISRVGNTSYADSVKGRFTISRDNAKNTVYLQMNSLKPEDTAVYYCAADAPSWYDRQYDYWGQGTQVTVSS | low polyreactivity |
| QVQLEESGGGLVQAGGSLRLSCAASGLTFRIYAMGWYRQAPGKERELVATISTRGGSTYYADSVKGRFTISRDNPKNTVYLQMNSLQPEDTAVYYCAASLGWFSGSLYNYWGQGTQVTVSS | high polyreactivity |
| QVQLVESGGGLVQEGGSLRLSCAASGSTFHSYAMGWYRQAPGKERELVAGINRTGGSTYYADSVKGRFTISRDNAKNTVYLQMNSLKPEDTAVYYCAAVSYYASDYRYDYWGQGTQVTVSS | low polyreactivity |
| QVQLVESGGGLVQAGGSLRLSCAASGFIFGGYTMGWYRQAPGKERELVAAISKTGGSTYYADSVKGRFTISRDNAKNTVYLQMNSLKPEDTAVYYCAVARSAYYRGNHWGQGTQVTVSS | high polyreactivity |
| QVQLVESAGGLVQAGGSLRLSCAASGRTLTRYTMGWYRQAPGKERELVAAITSGGSTYYADSVKGRFTISRDNAKNTVYLQKNSLKPEDTAVYYCNARTPWWSFSITEYGYWGQGTLVTVSS | high polyreactivity |

| Sequence | polyreactivity (PSR sort gate) |
| --- | --- |
| QVQLVESGGGLVQAGGSLRLTCAASGYTFWLNGMGWYRHAPGKERELVAAISSSGGSTYYADSVKGRFTISRDNAKNTVYLQMNSLKPEDTAVYDCAVDAYWRHWYYPYESHHDYWGQGTQVTVST | low polyreactivity |
| QVQLVESGGGLVQAGGRLRLSCAATGRTFSYNAMGWYRQAPGKERELVAAITTNSGSRTYYADSVKGRFTISRDNAKNTVYLQMNSLKPEDTAVYYCAADGPVVSGYYWGQGTQVTVSS | high polyreactivity |
| QVQLVESGGGLVQAGGSLRLSCAASGRTFPGNAMGWYRQAPGKERELVAAISRRGGTTYYADSVKGRFTITRDNAKNTVYLQMNSLKPEDTAVYYCAKSYRDYGISDFDYWGQGTQVTVSS | high polyreactivity |
| QVQLVESGGGLVQAGGSLRLSCAASGRTFALNAMGWSRQAPGKERELVAAISWSSGRTYYADSVKGRFTISRDIAKNTVYLQMNSLKPEDTAVYYCAAYAQKRYYWGQGTQVTVSS | high polyreactivity |
| QVQLVESGGGLVQAGGSLRLSCDASGSIFEYYAMGWYRQAPGKERELVAAIRVSDVNTYYADSVKGRFTISRDNAKNTVYFQMNSLKPEDTAVYYCANAYKGYSDFDYWGQGTQVTVSS | high polyreactivity |
| HVQLVESGGGLVQAGGSLRLSCAASGSTFIGYDMGWYTQAPGKERELVAAISYYDGTYYADSVNGSFTISRDNAKNTVYLQMNTLKPEDTAVYFCGVYRYDYWGQGTQVTVSS | low polyreactivity |
| QVQLVESGGGLVQAGGSLRLSCAASGSIFYSNAMGWYRQAPGKERELVAAISGSGGTTYYADSVKGRFTISRDNAKNTVYLQMNSLKPEETAVYYCAAKPSVRVRLSDYWGQGTQVTVSS | high polyreactivity |
| QVQLVESGGGLVQAGGSLRLSCAASGGIFQGYAMGWYRQAPGKERELVAGITSRSGSTYYADSVKGRFTISRDNAKNTVYLQMNSLKPEDTAVYYCAVRVYRSYGYWGQGTQVTVSS | high polyreactivity |
| QVQHVESGGGLVQAGGSLRLSCAASGSIIYRNAMGWSRQPPGKERELVAAISWSAARTYYADSVKGRFTISRDNAKNTVYLQMNSQKPEDTAVYYCNKAARFTSHQGYDSWGQGTQVTVSS | high polyreactivity |
| QVQLVESGGGLVQAGGSLRLSCAASGFIFQKYVMGWSRQAPGKERELVAVISRSGDSTRYADSVKGRFTISRDNAKNTVYLQMNSLKPEDTAVFYCAAASAKFTGTGYYFWGQGTQVTVSS | high polyreactivity |
| QVQLVESGGGLVQAGGSLRLSCAASGIIFYKYTMGWYRQAPGKERELVAAITKSGVRTYYADSVKGRFTISRDNAKNTVYLQMKSLKPEDTSVYYCAAKTPTKDRGSDFDYWGQGTQVTVSS | high polyreactivity |
| QVQLVESGGGLVQAGGSLRLSCAASGSTITGNTMGWYRQAPGKERELVAAITNGGSTYYADSVKGRFTISRDNAKNTVYLQMNSLKPEDTAVYYCAAESTFYGYDYWGQGTQVTVSS | high polyreactivity |
| QVQLQESGGGLVQAGGSLRLRCAASGSISRLDYMGWYRQASGKELELVAAIDNGSTTYYADSVKGRLTISRDNEKYTVYLKMNSLKPEDTAVYFCAAVRGRGGTHAYWGQGTQVTVSG | low polyreactivity |
| QVQLVESRGGLVQAGGSLRLSCAASGSIFLYYARGWYIQAPGKERELDAAISISGGRTYYADSVKGRFTISRDNSKNTVYIQMNSLKPEDTAVYYCATKGYTGYAYRYGYWGQGTQVTVSS | high polyreactivity |
| QVQLVESGGGLVQAGGSLRLSCAASGNTFYYYAMGWYRQAPGKERELVASITSTARTYYADSVKGRFTISRDNAKNTVYLQMNSLKPEDTAVYYCNAKEHYATRSDSWGEGTQVTVSS | high polyreactivity |
| QVQLVESGGGLVQAGGSLRLSCAASGSTFWPYAMGWYRQAPGKERELVAAITTRDGSTYYADSVKGRFTISRDNAKNTVYLQMNSLKPEDTAVYYCAAKSSRYDYYYWGQGTQVTVSS | high polyreactivity |
| QVQLVESGGGLVQAAGSVRLSCAASGITFTQYAMGRYRHAPGKESECVAGITFSGSSTYYADSVKGRFTISRDNSKNTVYLQMNSLKPEDTAVYYCAAESWYKYIYGYPRLFDYWGQATQVTVSS | low polyreactivity |
| QVQLVESGGGLVQAGGSLRLSCAASGFTFPYYAQGWYRQAPGKETELVATISTGSGVSTYDADSVKGRFTISRDNAKNTVYLQMNSLKPEDTAVYYCAAVFGWRRYVTYDYWGQGTQVTVSS | low polyreactivity |
| QVQLVESGGGLVQAGGSLRLICAASGSTFSSNAMGWYRQAPGKERELVAAISRSGVTTYYADSVKGRFTISRDNAKNTVYLQKHSLKPEDTAVYYCAAQPYSRRYGRYRGFQYKYEYWGQGTQVTVSS | low polyreactivity |
| QVQLVESGGGLVQAGGSLRLSCAASGRTFGRYAMGWYRQAPGKERELVATITSGGSTNYADSVKGRFTISRDNAKNTVYIQMKSMKPEDTAVYYCAAEFSPSRWAYSEGALRYYYWGQGTQVTVSS | low polyreactivity |

Reference: the nanobody polyreactivity screen of Harvey et al. (2022)
